Experimental findings from article PMC12154632 are described below.

One may read the koff as the first-order rate constant of dissociation. High values mean a short-lived complex, low ones a long-lived complex. A word on the kon: it is the second-order rate constant of association. The low end stands for slow association, the high end for fast association.

For assay [1], the target named is paused elongation complex PEC-161 (E. coli RNAP stalled at C161 of the Bsu-GTR template) (E. coli). The experiment in a line: single-molecule fluorescence colocalisation.
Assay [2] concerns the target paused elongation complex PEC-225 (E. coli RNAP stalled at U225 of the Bsu-GTR template) (E. coli). The assay can be described thus: single-molecule fluorescence colocalisation.

Sequence of paused elongation complex PEC-225 (E. coli RNAP stalled at U225 of the Bsu-GTR template) (E. coli) (A1AGI6 whole entry, chain 1 of 4): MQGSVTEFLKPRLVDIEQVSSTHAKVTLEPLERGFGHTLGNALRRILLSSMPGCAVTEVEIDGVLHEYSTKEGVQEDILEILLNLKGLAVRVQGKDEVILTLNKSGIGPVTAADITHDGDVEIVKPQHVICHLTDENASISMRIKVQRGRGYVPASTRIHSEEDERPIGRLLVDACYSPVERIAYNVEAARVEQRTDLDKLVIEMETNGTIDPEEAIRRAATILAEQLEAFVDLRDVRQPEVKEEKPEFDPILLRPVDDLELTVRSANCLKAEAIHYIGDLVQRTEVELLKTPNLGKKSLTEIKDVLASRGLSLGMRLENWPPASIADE
Sequence of paused elongation complex PEC-225 (E. coli RNAP stalled at U225 of the Bsu-GTR template) (E. coli) (A1AIF9 whole entry, chain 2 of 4, further chain): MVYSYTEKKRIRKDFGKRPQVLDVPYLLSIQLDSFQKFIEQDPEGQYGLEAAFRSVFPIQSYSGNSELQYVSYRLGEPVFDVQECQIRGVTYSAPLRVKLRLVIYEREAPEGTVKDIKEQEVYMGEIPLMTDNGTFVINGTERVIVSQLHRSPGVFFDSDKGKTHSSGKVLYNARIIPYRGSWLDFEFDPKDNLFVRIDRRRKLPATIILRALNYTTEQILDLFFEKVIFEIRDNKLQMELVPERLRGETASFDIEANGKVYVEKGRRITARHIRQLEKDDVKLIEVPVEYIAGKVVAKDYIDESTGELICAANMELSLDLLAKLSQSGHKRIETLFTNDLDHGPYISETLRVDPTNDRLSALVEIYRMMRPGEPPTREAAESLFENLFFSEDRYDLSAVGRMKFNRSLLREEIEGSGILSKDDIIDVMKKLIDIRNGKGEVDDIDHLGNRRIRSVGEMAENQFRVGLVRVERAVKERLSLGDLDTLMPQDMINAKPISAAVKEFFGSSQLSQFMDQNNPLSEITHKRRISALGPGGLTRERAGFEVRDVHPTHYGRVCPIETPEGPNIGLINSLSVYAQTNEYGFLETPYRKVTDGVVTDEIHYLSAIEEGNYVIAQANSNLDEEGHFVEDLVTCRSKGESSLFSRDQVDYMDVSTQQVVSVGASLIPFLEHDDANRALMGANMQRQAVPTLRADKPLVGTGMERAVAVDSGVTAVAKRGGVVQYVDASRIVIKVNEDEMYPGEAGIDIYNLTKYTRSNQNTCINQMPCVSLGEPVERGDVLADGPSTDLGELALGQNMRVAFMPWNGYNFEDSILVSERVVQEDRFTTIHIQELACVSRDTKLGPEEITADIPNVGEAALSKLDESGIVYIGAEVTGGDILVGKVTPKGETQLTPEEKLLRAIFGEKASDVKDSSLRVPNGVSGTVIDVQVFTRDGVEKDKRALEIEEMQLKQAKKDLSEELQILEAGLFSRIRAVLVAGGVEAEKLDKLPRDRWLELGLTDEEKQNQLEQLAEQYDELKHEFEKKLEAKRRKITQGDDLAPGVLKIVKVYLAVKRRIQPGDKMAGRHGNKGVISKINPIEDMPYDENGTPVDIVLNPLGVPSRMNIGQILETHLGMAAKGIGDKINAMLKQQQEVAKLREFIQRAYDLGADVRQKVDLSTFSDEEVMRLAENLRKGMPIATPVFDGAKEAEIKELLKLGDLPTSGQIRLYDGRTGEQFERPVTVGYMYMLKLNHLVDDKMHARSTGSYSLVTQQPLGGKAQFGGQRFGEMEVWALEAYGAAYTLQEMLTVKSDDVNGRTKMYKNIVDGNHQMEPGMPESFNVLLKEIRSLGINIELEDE
Sequence of paused elongation complex PEC-225 (E. coli RNAP stalled at U225 of the Bsu-GTR template) (E. coli) (A7ZUK2 whole entry, chain 3 of 4, further chain): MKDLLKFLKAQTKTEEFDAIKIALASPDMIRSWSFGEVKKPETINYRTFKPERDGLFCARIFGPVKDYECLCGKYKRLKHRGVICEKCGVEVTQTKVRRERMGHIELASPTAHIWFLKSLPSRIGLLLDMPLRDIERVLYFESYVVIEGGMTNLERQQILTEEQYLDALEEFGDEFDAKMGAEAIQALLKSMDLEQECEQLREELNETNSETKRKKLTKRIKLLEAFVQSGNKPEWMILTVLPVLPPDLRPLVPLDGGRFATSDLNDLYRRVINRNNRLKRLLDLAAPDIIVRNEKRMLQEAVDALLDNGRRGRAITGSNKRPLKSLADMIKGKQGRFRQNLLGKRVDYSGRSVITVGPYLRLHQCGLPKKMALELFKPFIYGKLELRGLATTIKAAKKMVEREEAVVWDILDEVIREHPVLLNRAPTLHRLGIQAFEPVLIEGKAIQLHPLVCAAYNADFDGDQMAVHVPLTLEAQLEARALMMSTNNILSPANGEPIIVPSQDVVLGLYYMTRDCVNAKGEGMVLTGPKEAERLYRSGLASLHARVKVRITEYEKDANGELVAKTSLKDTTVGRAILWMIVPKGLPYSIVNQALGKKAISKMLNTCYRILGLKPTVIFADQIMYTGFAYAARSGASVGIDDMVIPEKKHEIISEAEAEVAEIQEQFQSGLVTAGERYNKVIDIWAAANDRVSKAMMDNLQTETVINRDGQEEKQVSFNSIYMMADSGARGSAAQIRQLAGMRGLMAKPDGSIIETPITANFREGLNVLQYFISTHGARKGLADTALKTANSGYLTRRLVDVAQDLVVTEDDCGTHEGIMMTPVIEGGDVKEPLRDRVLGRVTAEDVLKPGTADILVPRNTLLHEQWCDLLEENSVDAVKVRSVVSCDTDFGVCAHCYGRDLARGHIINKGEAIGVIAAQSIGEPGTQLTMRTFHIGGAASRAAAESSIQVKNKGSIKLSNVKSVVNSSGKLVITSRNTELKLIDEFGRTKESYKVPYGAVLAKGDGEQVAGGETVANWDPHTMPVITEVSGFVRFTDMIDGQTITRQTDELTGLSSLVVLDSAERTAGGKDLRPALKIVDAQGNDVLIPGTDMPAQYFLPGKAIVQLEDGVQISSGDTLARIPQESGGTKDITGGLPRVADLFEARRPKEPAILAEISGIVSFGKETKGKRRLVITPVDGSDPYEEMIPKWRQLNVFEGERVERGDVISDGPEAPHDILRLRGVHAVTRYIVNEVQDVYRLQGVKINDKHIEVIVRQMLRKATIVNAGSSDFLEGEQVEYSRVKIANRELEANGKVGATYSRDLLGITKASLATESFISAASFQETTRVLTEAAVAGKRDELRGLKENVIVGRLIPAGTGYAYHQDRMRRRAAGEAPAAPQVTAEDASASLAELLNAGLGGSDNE
Sequence of paused elongation complex PEC-225 (E. coli RNAP stalled at U225 of the Bsu-GTR template) (E. coli) (A1AHI0 2-91 limits assumed, chain 4 of 4, further chain): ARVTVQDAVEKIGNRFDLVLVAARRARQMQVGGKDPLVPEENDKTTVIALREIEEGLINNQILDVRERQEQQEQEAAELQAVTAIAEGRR

For “NusA-Cy5 (from UniProt P0AFF6 1-495) (natural protein)”, in assay [1], the koff amounted to 0.81 s⁻¹; the kon is 1.12e+07 M⁻¹ s⁻¹; the kon, fast (fraction 45%) is 2.34e+07 M⁻¹ s⁻¹; the kon, slow (fraction 55%) is 2.29e+06 M⁻¹ s⁻¹. In assay [2], this substance returned a koff of 0.47 s⁻¹; a kon of 4.16e+06 M⁻¹ s⁻¹; a kon, fast (fraction 50%) of 7.26e+06 M⁻¹ s⁻¹; a kon, slow (fraction 50%) of 1.38e+06 M⁻¹ s⁻¹.
